Measurements as given in patent US20210102195A1 (TWIST BIOSCIENCE, published 2021).
Positions count from the first letter of the chain named. Values belong to the binder of their own block, whether it stands above or below them.

Key:
[1] = target: T1, CRTH2R (UniProt Q9Y5Y4 1-395, limits assumed); assay: flow cytometry (MFI), CHO CRTH2R-positive cells against parental CHO cells, 3-fold titration from 100 nM; grey = CRTH2R cells, black = parental cells (no legend on the panel)
T1 construct: whole, on cells; also called Prostaglandin D2 receptor 2 (DP2 or CRTH2) receptor
T1 sequence (looked up): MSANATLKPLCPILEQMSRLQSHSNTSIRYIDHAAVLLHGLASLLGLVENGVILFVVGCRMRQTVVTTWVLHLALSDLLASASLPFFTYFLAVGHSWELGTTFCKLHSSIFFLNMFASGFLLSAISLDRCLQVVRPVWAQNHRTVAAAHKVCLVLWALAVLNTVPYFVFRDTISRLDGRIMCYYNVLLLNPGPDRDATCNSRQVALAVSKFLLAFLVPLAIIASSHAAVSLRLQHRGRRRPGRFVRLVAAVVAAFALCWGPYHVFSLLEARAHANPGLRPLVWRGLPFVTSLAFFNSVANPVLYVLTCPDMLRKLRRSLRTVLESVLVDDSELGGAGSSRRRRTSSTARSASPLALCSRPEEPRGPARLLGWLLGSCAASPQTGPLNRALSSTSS
Description: Cell binding of anti-CRTH2R antibodies was determined by testing on CHO CRTH2R-positive cells (GFP+) and parental CHO cells (GFP−), comparing parental negative and target positive cells to rule out false-positives. Antibodies as listed in Table 14A were titrated starting at 100 nM (15 ug/mL) with 3-fold titrations, for a total of 8 points. Two antibodies (gPCR-51 and gPCR-52) were used as a positive control.

[2] = target: T1, CRTH2R; assay: cell-based or functional assay

B3: CRTH2-15 (antibody, V domains shown)
VH: QVQLVQSGAEVKKPGSSVKVSCKASGGTFSTYAIDWVRQAPGQGLEWMGGIIPLFGSPNYAQKFQGRVTITADESTSTAYMELSSLRSEDTAVYYCARANQHFFLYEGTSSSWLHVGHARYGYHYYGMDVWGQGTLVTVSS
VL: QSVLTQPPSVSAAPGQKVTISCSGSGSNIGSNYVSWYQQLPGTAPKLLIYDNIRRPSGIPDRFSGSKSGTSATLGITGLQTGDEADYYCAAWDTRLSAGVFGGGTKLTVL
notes: CRTH2R IgG
EC50 [1]: 73.8 nM
antagonist activity in PGD2-induced cAMP assay at 33 nM IgG [2]: > 20%

B4: CRTH2 57 (antibody, V domains shown)
VH: QVQLVQSGAEVKKPGSSVKVSCKASGGTFSSYAMSWVRQAPGQGLEWMGGIIPLFGTTDYAQKFQGRVTITADESTSTAYMELSSLRSEDTAVYYCARANQHFVKIQGAPVSTPVPGFGTTGYHYYGMDVWGQGTLVTVSS
VL: B3 VL with G26S, G30E, S31D, I53F, R54K, A90G, A91T, R95S, G99A, V100L
EC50 [1]: 158 nM

B5: CRTH2 66 (antibody)
heavy chain (variable domain given): QVQLVESGGGVVQPGRSLRLSCAASGFDFSGYGMHWVRQAPGKGLEWVAVISYEGSNKFYADSVKGRFTISRDNSKNTLYLQMNSLRAEDTAVYYCARDLRELECEEWTIEVHGQEFAVHQDRGGVFSRGPCVDPRGVAGSFDVWGQGTLVTVSS
light chain (variable domain given): EIVMTQSPATLSVSPGERATLSCRASQGVGSNLAWYQQKPGQAPRLLIYRTSIRATGIPARFSGSGSGTEFTLTISSLQSEDFAVYYCQQYYSWPPLTFGGGTKVEIK
EC50 [1]: 3.95 nM

B7: CRTH2 39 (antibody, V domains shown)
VH: QVQLVQSGAEVKKPGSSVKVSCKASVDTFSRYSISWVRQAPGQGLEWMGGIIPVFDTTNYAQKFQGRVTITADESTSTAYMELSSLRSEDTAVYYCARDMYYDFGVILGGTAVGTNNGSANEVVPADDAFDIWGQGTLVTVSS
VL: QSVLTQPPSVSAAPGQKVTISCSGSSSNIGDNDVSWYQQLPGTAPKLLIYDDDKRPSGIPDRFSGSKSGTSATLGITGLQTGDEADYYCASWDTSLSGGYVFGGGTKLTVL
EC50 [1]: 19 nM

B9: CRTH2-8 (antibody, V domains shown)
VH: QVQLVQSGAEVKKPGSSVKVSCKASGGTFTDYAISWVRQAPGQGLEWMGGIIPFFGSPNYAQKFQGRVTITADESTSTAYMELSSLRSEDTAVYYCARDMYYDFAAGLEGTITEVFDEEGHQGGTEVVPADDAFDIWGQGTLVTVSS
VL: B3 VL with G26S, S31K, I53N, R54Q, A90G, A91T, R95S, S97T, A98S, G99V
notes: CRTH2R IgG
EC50 [1]: 135 nM
antagonist activity in PGD2-induced cAMP assay at 33 nM IgG [2]: > 20%

B11: CRTH2 35 (antibody, V domains shown)
VH: QVQLVQSGAEVKKPGSSVKVSCKASGGTFRSYAISWVRQAPGQGLEWMGGIIPISGTTNYAQKFQGRVTITADESTSTAYMELSSLRSEDTAVYYCARANQHFTRIFGNYQIYFGHFGYHYYGMDVWGQGTLVTVSS
VL: QSALTQPASVSGSPGQSITISCTGTSSDIGGYEFVSWYQQHPGKAPKLMIYGVSRRPSGVSNRFSGSKSGNTASLTISGLQAEDEADYYCGSYTSSSTPYVFGGGTKLTVL
EC50 [1]: 12.6 nM

Continued, values first:

EC50 [1]: 8.61 nM
antagonist activity in PGD2-induced cAMP assay at 33 nM IgG [2]: > 20%
B1: CRTH2-74 (antibody)
VH: QVQLVESGGGVVQPGRSLRLSCAASGFSFSEYGIHWVRQAPGKGLEWVAVISYEGSNEYYADSVKGRFTISRDNSKNTLYLQMNSLRAEDTAVYYCARANQHFGPVAGGATPSEEPGSQLTRAELGWDAPPGQESLADELLQLGTEHGYHYYGMDVWGQGTLVTVSS
VL: QSVLTQPPSVSAAPGQKVTISCSGSTSNIGKNYVSWYQQLPGTAPKLLIYDDDERPSGIPDRFSGSMSGTSATLGITGLQTGDEADYYCEAWDADLSGAVFGGGTKLTVL
notes: CRTH2R IgG

antagonist activity in PGD2-induced cAMP assay at 33 nM IgG [2]: > 20%
B2: CRTH2-28 (antibody, V domains shown)
VH: QVQLVQSGAEVKKPGSSVNVSCKASGGTFSDYAFSWVRQAPGQGLEWMGAIIPFFGTVNYAQKFQGRVTITADESTSTAYMELSSLRSEDTAVYYCARDMYYDFATGTGGPEDDLYPQGELNDGYRIEVVPADDAFDIWGQGTLVTVSS
VL: B3 VL with G26I, S31K, N52D, I53H, R54K, A91T, T94R, R95G, G99A

EC50 [1]: 16.7 nM
antagonist activity in PGD2-induced cAMP assay at 33 nM IgG [2]: > 20%
B6: CRTH2-19 (antibody, V domains shown)
VH: QVQLVQSGAEVKKPGSSVKVSCKASGGTFSSHAINWVRQAPGQGLEWMGRIIPIVGTTTYAQKFQGRVTITADESTSTAYMELSSLRSEDTAVYYCARDMYYDFDYFGLTLTGDRNDDEVVPADDAFDIWGQGTLVTVSS
VL: QSALTQPASVSGSPGQSITISCTGTSSDVGGYDYVTWYQQHPGKAPKLMIYDVDTRPSGVSNRFSGSKSGNTASLTISGLQAEDEADYYCSSYTTSTSYVFGGGTKLTVL
notes: CRTH2R IgG

antagonist activity in PGD2-induced cAMP assay at 33 nM IgG [2]: > 20%
B8: CRTH2-60 (antibody, V domains shown)
VH: QVQLVQSGAEVKKPGSSVKVSCKASGGTFKNYAINWVRQAPGQGLEWMGAIIPKFGAANYAQKFQGRVTITADESTSTAYMELSSLRSEDTAVYYCARANQHFSAVRGLAFGYGYRIGGYHYYGMDVWGQGTLVTVSS
VL: QSVLTQPPSVSAAPGQKVTISCSGSTSNIGINYVSWYQQLPGTAPKLLIYENRKRPSGIPDRFSGSKSGTSATLGITGLQTGDEADYYCATWDASLKNLVFGGGTKLTVL

IC50 fold difference of the PGD2 dose response (cAMP) with 100 nM IgG [2]: > 2 fold
antagonist activity in PGD2-induced cAMP assay at 33 nM IgG [2]: > 20%
B10: CRTH2-42 (antibody)
VH: QVQLVESGGGVVQPGRSLRLSCAASGFAFSSYAMHWVRQAPGKGLEWVAVISYEGSNEYYADSVKGRFTISRDNSKNTLYLQMNSLRAEDTAVYYCARDLRELECEEWTVLQYGKFHMRWAESGEGSLSRGPCVDPRGVAGSFDVWGQGTLVTVSS
VL: B11 VL with I29V, E33R, F34Y, G52N, S54N, R55Y, G91S, T94R, P99L, Y100G

antagonist activity in PGD2-induced cAMP assay at 33 nM IgG [2]: > 20%
B12: CRTH2-70 (antibody, V domains shown)
VH: QVQLVQSGAEVKKPGSSVKVSCKASGGTFSNHAIIWVRQAPGQGLEWMGGIIPIFGTPSYAQKFQGRVTITADESTSTAYMELSSLRSEDTAVYYCARDMYYDFDVISAGVVGAGNPEVVPADDAFDIWGQGTLVTVSS
VL: QSVLTQPPSVSAAPGQKVTISCSGSTSNIGNNFVSWYQQLPGTAPKLLIYDNEKRPSGIPDRFSGSKSGTSATLGITGLQTGDEADYYCGTWDERQTDESYVFGGGTKLTVL

antagonist activity in PGD2-induced cAMP assay at 33 nM IgG [2]: > 20%
B13: CRTH2-24 (antibody, V domains shown)
VH: QVQLVQSGAEVKKPGSSVKVSCKASGGSFSNYGISWVRQAPGQGLEWMGGIIPLIGTANYAQKFQGRVTITADESTSTAYMELSSLRSEDTAVYYCARDMYYDFTLGPQSIGPLGEVVPADDAFDIWGQGTLVTVSS
VL: QSVLTQPPSVSAAPGQKVTISCSGSSSNIGNNFVSWYQQLPGTAPKLLIYDNIQRPSGIPDRFSGSKSGTSATLGITGLQTGDEADYYCGTWDTSLSAVVFGGGTKLTVLR

EC50 [1]: 23.2 nM
antagonist activity in PGD2-induced cAMP assay at 33 nM IgG [2]: > 20%
B14: CRTH2-45 (antibody)
VH: QVQLVESGGGVVQPGRSLRLSCAASGFTFSHYAMHWVRQAPGKGLEWVADISHEGSNKYYADSVKGRFTISRDNSKNTLYLQMNSLRAEDTAVYYCARDGRGSLPRPKGGPTSGGGFSTNIGYGFVVQSYDSSEDSGGAFDIWGQGTLVTVSS
VL: QSVLTQPPSVSAAPGQKVTISCSGTSSNIENNYVSWYQQLPGTAPKLLIYDNVKRPSGIPDRFSGSKSGTSATLGITGLQTGDEADYYCGTWDNTVSAPWVFGGGTKLTVL
notes: CRTH2R IgG
